Assay results: paper PMC11090908, “Aurora-A condensation mediated by BuGZ aids its mitotic centrosome functions” (iScience, 2024)

T1: Aurora-A catalytic domain (CD, 128-403aa), unlabelled, as used in the NMR titration (human, UniProt O14965 128-403)
T1 construct: also called Aurora-A CD; AuroraA Kinase; source: purified
T1 sequence (looked up): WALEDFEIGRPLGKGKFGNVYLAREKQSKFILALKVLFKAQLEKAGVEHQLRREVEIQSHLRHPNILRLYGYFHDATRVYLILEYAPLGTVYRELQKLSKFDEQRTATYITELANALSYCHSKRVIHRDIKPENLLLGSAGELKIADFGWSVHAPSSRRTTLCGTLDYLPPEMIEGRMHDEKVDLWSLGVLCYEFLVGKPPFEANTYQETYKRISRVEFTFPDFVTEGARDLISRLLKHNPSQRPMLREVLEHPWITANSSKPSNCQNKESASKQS

T2: His-hAurora-A-CD (Aurora-A catalytic domain, 122-403aa) (human, UniProt O14965 122-403)
T2 construct: Cloned into pET-28a at the BamHI site; also called His-Aurora-A-CD; hAurora-CD; source: E. coli Rosetta (DE3), purified
T2 sequence (looked up): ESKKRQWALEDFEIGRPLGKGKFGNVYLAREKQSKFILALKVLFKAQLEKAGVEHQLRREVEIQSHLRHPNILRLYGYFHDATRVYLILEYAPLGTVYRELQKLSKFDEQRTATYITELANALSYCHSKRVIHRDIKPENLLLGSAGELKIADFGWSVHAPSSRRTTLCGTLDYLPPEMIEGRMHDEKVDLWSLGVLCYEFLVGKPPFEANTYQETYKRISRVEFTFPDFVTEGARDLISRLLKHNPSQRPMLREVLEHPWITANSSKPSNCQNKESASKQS


Key:
[1] = target: T1, Aurora-A catalytic domain (CD, …); assay: NMR titration; 1H-15N HSQC of labelled Aurora-A IDR (0.1 mM) without and with unlabelled catalytic domain, 1:2 IDR:CD molar ratio; 278 K; 20 mM NaH2PO4, 50 mM NaCl, 2 mM EDTA, 1 mM DTT, pH 6.4; conditions: both partners purified
[2] = target: T2, His-hAurora-A-CD (Aurora-A catalytic …); assay: pull-down; 5 μg His-hAurora-A-CD with 5 μg GST-BuGZ-N or GST on glutathione-agarose, 200 μL 0.1% PBST (Triton X-100), 4°C, 2 h; Western blot and Coomassie; conditions: both partners purified

Row | binding result [1] | binding result [2] | Binder
1 | binds |  | Aurora-A IDR (intrinsic disordered region, 1-127aa) (domain or fragment, human, UniProt O14965 1-127, looked up, Aurora-A (Aurora kinase A), human, N-terminal intrinsic disordered region; 1-127aa in the NMR text and legend, 1-126aa in the constructs section; The methods list the construct pET-28a-hAurora-IDR as 1-126aa; the NMR results and legend say 1-127aa; Uniformly isotope-labelled for NMR; also called hAurora-IDR; source: E. coli BL21(DE3), isotope-labelled (15N, 13C), purified, His tag removed by TEV …) MDRSKENCISGPVKATAPVGGPKRVLVTQQFPCQNPLPVNSGQAQRVLCPSNSSQRIPLQAQKLVSSHKPVQNQKQKQLQATSVPHPVSRPLNNTQKSKQPLPSAPENNPEEELASKQKNEESKKRQ
2 |  | binds | GST-BuGZ-N (hBuGZ N-terminus, 1-92aa) (domain or fragment, BuGZ (ZNF207), human, N-terminus with the zinc fingers, residues 1-92; Cloned into pGEX-6P-1 at the EcoRI site; also called GST-BuGZ-N-terminus; source: E. coli Rosetta (DE3), purified) not shown
